Measurements reported in paper PMC314469, “Protein Interaction Networks by Proteome Peptide Scanning” (PLoS Biology, 2004).

T1: Yhr016c SH3 (YSC84_YEAST), P32793
T1 chain: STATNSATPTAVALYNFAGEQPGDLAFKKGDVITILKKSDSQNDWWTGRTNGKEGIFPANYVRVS

T2: Boi2 SH3 (BOI2_YEAST), P39969
T2 chain: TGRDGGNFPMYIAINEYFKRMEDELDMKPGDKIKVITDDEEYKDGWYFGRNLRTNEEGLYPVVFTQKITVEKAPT

T3: Rvs167 SH3 (RV167_YEAST), P39743
T3 chain: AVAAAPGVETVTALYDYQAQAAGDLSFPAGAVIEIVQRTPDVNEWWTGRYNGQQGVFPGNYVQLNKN

T4: Yfr024 SH3 (LSB3_YEAST), P43603
T4 chain: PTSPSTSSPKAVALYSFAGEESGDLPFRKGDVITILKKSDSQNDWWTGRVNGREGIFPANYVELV

T5: Boi1 SH3 (BOI1_YEAST), P38041
T5 chain: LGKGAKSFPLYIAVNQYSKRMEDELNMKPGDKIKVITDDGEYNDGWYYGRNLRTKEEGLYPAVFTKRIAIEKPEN


How the values were obtained:
Experiment in all cases: SPOT array
[1] = biological target: T1, Yhr016c SH3 (YSC84_YEAST), P32793
[2] = biological target: T2, Boi2 SH3 (BOI2_YEAST), P39969
[3] = biological target: T3, Rvs167 SH3 (RV167_YEAST), P39743
[4] = biological target: T4, Yfr024 SH3 (LSB3_YEAST), P43603
[5] = biological target: T5, Boi1 SH3 (BOI1_YEAST), P38041

Row | normalised SPOT signal, Boehringer light units (BLU); mean over the file's lines of this peptide [1] | normalised SPOT signal, Boehringer light units (BLU); mean over the file's lines of this peptide [2] | normalised SPOT signal, Boehringer light units (BLU); mean over the file's lines of this peptide [3] | normalised SPOT signal, Boehringer light units (BLU); mean over the file's lines of this peptide [4] | normalised SPOT signal, Boehringer light units (BLU); mean over the file's lines of this peptide [5] | Binder
1 | 204 | 1.8 | 29.4 | 289 | 110 | PRGPLSPKKHVLPI [YPR107C 47-60]
2 | 176 | 43 | 37 | 284 | 75.4 | PSAPKVPFKTLDSF [YNL315C 113-126]
3 | 0 | 134 | 59.3 | 8640 | 347 | PTPPSPPAKRIPRS [YPR171W 305-318]
4 | 545 | 37.5 | 124 | 2050 | 72.7 | PPLPPIPTRDDMSN [YNL152W 329-342]
5 | 181 | 49 | 18.5 | 218 | 91 | PRRPNEPGKGMKWR [YNL068C 402-415]
6 | 100 | 58 | 36.6 | 1030 | 60 | PPPPPPPPKPPLND [YMR089C 156-169]
7 | 62.5 | 37.8 | 40.5 | 2930 | 82.1 | PPPPPVPAKLFGES [YNL271C 1244-1257]
8 | 1710 | 59.6 | 332 | 2650 | 87.2 | PQGPGIPPRTYEAS [YPL084W 769-782]

The remaining lines, values behind:

Row | Binder | normalised SPOT signal, Boehringer light units (BLU); mean over the file's lines of this peptide [1] | normalised SPOT signal, Boehringer light units (BLU); mean over the file's lines of this peptide [2] | normalised SPOT signal, Boehringer light units (BLU); mean over the file's lines of this peptide [3] | normalised SPOT signal, Boehringer light units (BLU); mean over the file's lines of this peptide [4] | normalised SPOT signal, Boehringer light units (BLU); mean over the file's lines of this peptide [5]
9 | PQLPKSPSRYSLSR [YKL101W 622-635] | 391 | 775 | 391 | 1610 | 14300
10 | PTAPNSPIKLGRRK [YIL112W 218-231] | 175 | 68.2 | 11.6 | 547 | 135
11 | PNYPDSPPKVTFIS [YGL087C 66-79] | 260 | 76.3 | 12.5 | 87.1 | 68.6
12 | PPPPPPPSRKSGTP [YDL146W 477-490] | 2480 | 50.2 | 1520 | 6880 | 563
13 | PPEPATPSKKSLTT [YBR060C 169-182] | 66.6 | 26.2 | 23.8 | 41.3 | 46.1
14 | PPVPKAPSRRSSSL [YER132C 943-956] | 6150 | 753 | 1660 | 29400 | 1230
15 | PNSPTPPLKSKVSR [YER164W 1337-1350] | 164 | 40.1 | 25 | 866 | 170
16 | PSNPALPKKLLNVP [YGL197W 345-358] | 87.4 | 78.6 | 27.9 | 1030 | 28.7
17 | PTTPGYPSKDSDTE [YJR126C 341-354] | 25 | 27.1 | 45.8 | 139 | 40.3
